In paper PMC4865801:

- cells with resurgent currents (whole-cell patch clamp, 100 µM β4-peptide in the pipette, 50 nM ATX-II in the bath) (out of 15 cells) (hNav1.7/ΔL955 (human)): 1
- share of cells with resurgent currents (whole-cell patch clamp, 100 µM β4-peptide in the pipette, 50 nM ATX-II in the bath) (hNav1.7 WT (human)): 42%
- share of cells with resurgent currents (whole-cell patch clamp, 100 µM β4-peptide in the pipette, 50 nM ATX-II in the bath) (hNav1.7/V948C (human)): 55%
Binder: KKLITFILKKTREK [β4-peptide]
